The target in this assay is D. radiodurans DNA gyrase holoenzyme (reconstituted from GyrA::6His and 6His::GyrB) (D. radiodurans) (UniProt Q9RT53).

B1: PprA::6His protein (natural protein)
chain: MLPLAFLICSGHNKGSMARAKAKDQTDGIYAAFDTLMSTAGVDSQIAALAASEADAGTLDAALTQSLQEAQGRWGLGLHHLRHEARLTDDGDIEILTDGRPSARVSEGFGALAQAYAPMQALDERGLSQWAALGEGYRAPGDLPLAQLKVLIEHARDFETDWSAGRGETFQRVWRKGDTLFVEVARPASAEAALSDAAWDVIASIKDRAFQRELMRRSEKDGMLGALLGARHAGAKANLAQLPEAHFTVQAFVQTLSGAAARNAEEYRAALKTAAAALEEYQGVTTRQLSEVLRHGLRES
On to B1, for which the decatenation of kDNA by DNA gyrase (4 nM) with increasing concentrations of PprA; ratio of minicircles released with PprA over without PprA worked out at 7 fold.
